Assay results reported in patent publication US20260265368A1 (CARSGEN LIFE SCIENCES, published 2026).

Tests used:
[1] = molecular target: T1, Human CLDN6 (on 293T-CLDN6 cells) (human, UniProt P56747 1-220); experiment: flow cytometry on 293T-CLDN6 cells
T1 construct: In the killing assay it was also endogenous on OVCAR3 and OV90 cells; also called Claudin 6
T1 sequence: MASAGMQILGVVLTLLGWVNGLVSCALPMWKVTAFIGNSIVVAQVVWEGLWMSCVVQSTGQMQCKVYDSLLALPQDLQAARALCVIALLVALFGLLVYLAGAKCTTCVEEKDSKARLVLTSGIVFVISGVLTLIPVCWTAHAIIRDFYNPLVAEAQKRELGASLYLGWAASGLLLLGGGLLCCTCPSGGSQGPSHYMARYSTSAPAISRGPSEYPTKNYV

[2] = molecular target: T2, Human CLDN4 (on 293T-CLDN4 cells) (human, UniProt O14493 1-209); experiment: flow cytometry on 293T-CLDN4 cells
T2 construct: also called Claudin 4
T2 sequence: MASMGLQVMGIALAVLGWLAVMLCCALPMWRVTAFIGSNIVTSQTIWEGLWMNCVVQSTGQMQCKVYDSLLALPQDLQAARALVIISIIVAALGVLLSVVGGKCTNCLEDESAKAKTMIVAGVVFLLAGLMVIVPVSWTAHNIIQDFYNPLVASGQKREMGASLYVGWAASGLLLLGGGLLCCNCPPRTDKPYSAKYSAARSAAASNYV
Experimental: (§1) After centrifugation, the supernatant was discarded, and the cells were washed with PBS and incubated with Goat-anti-Mouse FITC at 4° C. After centrifugation, the supernatant was discarded, and the cells were washed and detected by flow cytometry. FlowJo v.X.0.7 was used for statistics and GraphPad Prism 8.0 was used for plotting.

[3] = molecular target: T3, Human CLDN9 (on 293T-CLDN9 cells) (human, UniProt O95484 1-217); experiment: flow cytometry on 293T-CLDN9 cells
T3 construct: also called Claudin 9
T3 sequence: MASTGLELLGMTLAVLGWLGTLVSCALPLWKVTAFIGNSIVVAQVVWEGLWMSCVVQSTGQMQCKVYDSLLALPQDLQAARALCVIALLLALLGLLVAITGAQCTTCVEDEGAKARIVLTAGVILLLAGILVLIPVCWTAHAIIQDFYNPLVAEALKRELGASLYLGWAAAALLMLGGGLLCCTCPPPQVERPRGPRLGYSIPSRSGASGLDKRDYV
Experimental: as §1

[4] = molecular target: T1, Human CLDN6 (on 293T-CLDN6 cells); experiment: flow cytometry EC50 on 293T-CLDN6 cells, against antibody H1
Experimental: (§2) The heavy chain variable region of antibody P1 from Example 3 was combined with the light chain variable regions of antibodies P2 and P3 by using molecular cloning, respectively, so as to obtain antibodies M1 and M2. After being prokaryotically expressed and puried, purified single chain antibodies (scFv) were obtained. […] Data were analyzed using FlowJo to calculate mean fluorescence intensity (MFI).

[5] = molecular target: T3, Human CLDN9 (on 293T-CLDN9 cells); experiment: flow cytometry (MFI) on 293T-CLDN9 cells
Experimental: as §2

[6] = molecular target: T2, Human CLDN4 (on 293T-CLDN4 cells); experiment: flow cytometry (MFI) on 293T-CLDN4 cells
Experimental: as §2

Binder	EC50 [1] [nM]	binding result [2]	binding result [3]	fold improvement in affinity compared with antibody H1 [4] [fold]	binding result [5]	binding result [6]
Antibody P2 (scFv) (scFv, Prokaryotically expressed single chain antibody) scFv: EVQLVQSGAEVKKPGASVKVSCKASGYTFTGYYMNWVRQAPGQGLEWMGEINPATGSTTYNQKFKARVTITRDTSTSTAYMELSSLRSEDTAVYYCARRDYYYGSGFYAMDYWGQGTLVTVSSGGGGSGGGGSGGGGSDIQMTQSPSSLSASVGDRVTITCQASQSVSNNLNWYQQKPGKAPKLLIYGASKLEDGVPSRFSGSGSGTDFTFTISSLQPEDFATYYCLQHRYMWTFGQGTKVEIK	144					
Antibody P1 (scFv) (scFv, Prokaryotically expressed single chain antibody) scFv: EVQLVQSGAEVKKPGASVKVSCKASGYTFTGYYMNWVRQAPGQGLEWMGEINPATGSTTYNQKFKARVTITRDTSTSTAYMELSSLRSEDTAVYYCARRDYYLGSNSYALDYWGQGTLVTVSSGGGGSGGGGSGGGGSDIQMTQSPSSLSASVGDRVTITCQASQSVSNNLNWYQQKPGKAPKLLIYGASKLEDGVPSRFSGSGSGTDFTFTISSLQPEDFATYYCLQHRYLWTFGQGTKVEIK	62.7					
Antibody P3 (scFv) (scFv, Prokaryotically expressed single chain antibody) scFv: EVQLVQSGAEVKKPGASVKVSCKASGYTFTGYYMNWVRQAPGQGLEWMGEINPATGSTTYNQKFKARVTITRDTSTSTAYMELSSLRSEDTAVYYCARRDYYYGSGFYAMDYWGQGTLVTVSSGGGGSGGGGSGGGGSDIQMTQSPSSLSASVGDRVTITCQASQSVSNNLNWYQQKPGKAPKLLIYGASKLEDGVPSRFSGSGSGTDFTFTISSLQPEDFATYYCQQHRFMWTFGQGTKVEIK	555					
Antibody P4 (scFv) (scFv, Prokaryotically expressed single chain antibody) scFv: EVQLVQSGAEVKKPGASVKVSCKASGYTFTGYYMNWVRQAPGQGLEWMGEINPATGSTTYNQKFKARVTITRDTSTSTAYMELSSLRSEDTAVYYCARRDYYYGSGFYAMDYWGQGTLVTVSSGGGGSGGGGSGGGGSDIQMTQSPSSLSASVGDRVTITCQASQSVSNNLNWYQQKPGKAPKLLIYGASKLEDGVPSRFSGSGSGTDFTFTISSLQPEDFATYYCQQHRYMWTFGQGTKVEIK	183					
humanized antibody H1 (scFv-huFc) (Fc fusion, Tested as scFv-huFc; not shown: human Fc (huFc)) scFv: EVQLVQSGAEVKKPGASVKVSCKASGYTFTGYYMNWVRQAPGQGLEWMGEINPATGSTTYNQKFKARVTITRDTSTSTAYMELSSLRSEDTAVYYCARRDYYYGSGFYAMDYWGQGTLVTVSSGGGGSGGGGSGGGGSDIQMTQSPSSLSASVGDRVTITCQASQSVSNNLNWYQQKPGKAPKLLIYGASKLEDGVPSRFSGSGSGTDFTFTISSLQPEDFATYYCLQHRYLWTFGQGTKVEIK	475	no binding (tested: 10 µg/mL)	no binding (tested: 10 µg/mL)			
antibody M1 (scFv) (scFv, V domains shown, Tested as a prokaryotically expressed single chain antibody (scFv)) VH: EVQLVQSGAEVKKPGASVKVSCKASGYTFTGYYMNWVRQAPGQGLEWMGEINPATGSTTYNQKFKARVTITRDTSTSTAYMELSSLRSEDTAVYYCARRDYYLGSNSYALDYWGQGTLVTVSS VL: DIQMTQSPSSLSASVGDRVTITCQASQSVSNNLNWYQQKPGKAPKLLIYGASKLEDGVPSRFSGSGSGTDFTFTISSLQPEDFATYYCLQHRYMWTFGQGTKVEIK	23			~20	no binding (tested: 5 µg/mL)	no binding (tested: 5 µg/mL)
antibody M2 (scFv) (scFv, V domains shown, Tested as a prokaryotically expressed single chain antibody (scFv)) VH: EVQLVQSGAEVKKPGASVKVSCKASGYTFTGYYMNWVRQAPGQGLEWMGEINPATGSTTYNQKFKARVTITRDTSTSTAYMELSSLRSEDTAVYYCARRDYYLGSNSYALDYWGQGTLVTVSS VL: DIQMTQSPSSLSASVGDRVTITCQASQSVSNNLNWYQQKPGKAPKLLIYGASKLEDGVPSRFSGSGSGTDFTFTISSLQPEDFATYYCQQHRFMWTFGQGTKVEIK	24.7			~20	no binding (tested: 5 µg/mL)	no binding (tested: 5 µg/mL)
